The target in the assay is T1, murine IL-38 (mouse, UniProt Q8R459 1-152, limits assumed, C-terminally-biotinylated form).
T1 construct: Bacterially expressed in a C-terminally-biotinylated form and used as the antigen for phage selection; also called mouse IL-38; IL1F10
T1 sequence (looked up): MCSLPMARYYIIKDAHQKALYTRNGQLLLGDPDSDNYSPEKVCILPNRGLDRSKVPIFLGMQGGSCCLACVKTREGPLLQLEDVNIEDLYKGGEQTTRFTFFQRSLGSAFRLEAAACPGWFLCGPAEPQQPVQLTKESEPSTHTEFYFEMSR
The assay is described as follows: biolayer interferometry, fitted sensorgrams (association to about 600 s, dissociation to 1800 s); concentrations of the traces not given. On the technique in general: Biolayer interferometry detects binding as a change in optical thickness at a sensor tip.

In general, Kd refers to the constant that tells how readily two partners part at equilibrium. A higher Kd goes with a looser complex.

B1: Fab H06 (Fab, V domains shown)
VH: EVQLVESGGGLVQPGGSLRLSCAASGFSLSYSYIHWVRQAPGKGLEWVASISPSYSYTSYADSVKGRFTISADTSKNTAYLQMNSLRAEDTAVYYCARAPVPHVWPYSGFDYWGQGTLVTVSS
VL: DIQMTQSPSSLSASVGDRVTITCRASQSVSSAVAWYQQKPGKAPKLLIYSASSLYSGVPSRFSGSRSGTDFTLTISSLQPEDFATYYCQQAYWSPITFGQGTKVEIK
notes: the constant domains of the Fab are not
As to B1, the Kd turned out to be 69 nM.

B2: Fab E04 (Fab, V domains shown)
VH: EVQLVESGGGLVQPGGSLRLSCAASGFSFSSSSIHWVRQAPGKGLEWVASISPYYSYTSYADSVKGRFTISADTSKNTAYLQMNSLRAEDTAVYYCARTVRGSKKPYFSGWAMDYWGQGTLVTVSS
VL: DIQMTQSPSSLSASVGDRVTITCRASQSYYSYVAWYQQKPGKAPKLLIYSASSLYSGVPSRFSGSRSGTDFTLTISSLQPEDFATYYCQQVFAPITFGQGTKVEIK
notes: as for B1
On to B2, for which binding was put at a Kd of 6.7 nM.

Source of the values: patent publication US20200165334A1 (FRAUNHOFER GESELLSCHAFT ZUR F RDERUNG DER ANGEWANDTEN …, published 2020).
